Measured values published in the supplement of paper PMC5998384.

Legend:
HeLa Kyoto [1] = test: thermal stability score vs G1/S (z-score of summed log2 fold changes over temperatures); higher = more thermally stable than in G1/S
HeLa Kyoto [2] = test: melting temperature (median over replicates), in situ; higher = more thermally stable
HeLa Kyoto [3] = test: solubility change mitosis vs G1/S (difference of NP-40 vs SDS log2 ratios) (log2 ratio difference); higher = more soluble in mitosis
HeLa Kyoto [4] = test: solubility in G1/S (NP-40 vs SDS abundance) (log2 ratio); higher = more soluble; conditions: cell cycle stage: G1/S
[5] = cell cycle stage: early G1 (4.5 h after nocodazole release)
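For melting temperature (median over replicates), in situ in this document: HeLa Kyoto cells synchronized by double thymidine or nocodazole block, proteins quantified by TMT10plex mass spectrometry, three independent biological replicates.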
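For solubility change mitosis vs G1/S (difference of NP-40 vs SDS log2 ratios) in this document: synchronized HeLa Kyoto cells (double thymidine block for G1/S, nocodazole release for mitosis), protein amounts in NP-40 versus SDS lysates quantified by mass spectrometry, three biological replicates.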
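For solubility in G1/S (NP-40 vs SDS abundance) in this document: HeLa Kyoto cells arrested at G1/S by double thymidine block, proteins quantified by TMT10plex mass spectrometry in mild NP-40 versus SDS extracts, three biological replicates.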
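For thermal stability score vs G1/S (z-score of summed log2 fold changes over temperatures) in this document: synchronized HeLa Kyoto cells, proteins quantified by TMT10plex mass spectrometry, three biological replicates, mitosis taken 0.5 h after nocodazole release, G1/S directly after double thymidine block.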

Row | Sequence | thermal stability score (HeLa Kyoto [1]; [5]) | thermal stability score (HeLa Kyoto [1]; cell cycle stage: mitosis) | melting temperature (HeLa Kyoto [2]; cell cycle stage: G1/S) [°C] | melting temperature (HeLa Kyoto [2]; cell cycle stage: mitosis) [°C] | solubility change mitosis (log2) (HeLa Kyoto [3]) | solubility in G1/S (log2) (HeLa Kyoto [4])
1 | MATSPQKSPSVPKSPTPKSPPSRKKDDSFLGKLGGTLARRKKAKEVSELQEEGMNAINLPLSPIPFELDPEDTMLEENEVRTMVDPNSRSDPKLQELMKVLIDWINDVLVGERIIVKDLAEDLYDGQVLQKLFEKLESEKLNVAEVTQSEIAQKQKLQTVLEKINETLKLPPRSIKWNVDSVHAKSLVAILHLLVALSQYFRAPIRLPDHVSIQVVVVQKREGILQSRQIQEEITGNTEALSGRHERDAFDTLFDHAPDKLNVVKKTLITFVNKHLNKLNLEVTELETQFADGVYLVLLMGLLEGYFVPLHSFFLTPDSFEQKVLNVSFAFELMQDGGLEKPKPRPEDIVNCDLKSTLRVLYNLFTKYRNVE [PARVA] | 1.2 | 1.23 | 51 | 50.8 | -0.0689 | 0.479
2 | MATSRYEPVAEIGVGAYGTVYKARDPHSGHFVALKSVRVPNGGGGGGGLPISTVREVALLRRLEAFEHPNVVRLMDVCATSRTDREIKVTLVFEHVDQDLRTYLDKAPPPGLPAETIKDLMRQFLRGLDFLHANCIVHRDLKPENILVTSGGTVKLADFGLARIYSYQMALTPVVVTLWYRAPEVLLQSTYATPVDMWSVGCIFAEMFRRKPLFCGNSEADQLGKIFDLIGLPPEDDWPRDVSLPRGAFPPRGPRPVQSVVPEMEESGAQLLLEMLTFNPHKRISAFRALQHSYLHKDEGNPE [CDK4] | 0.0522 | -0.366 | 52.7 | 52.4 | -0.121 | 0.218
3 | MATSVLCCLRCCRDGGTGHIPLKEMPAVQLDTQHMGTDVVIVKNGRRICGTGGCLASAPLHQNKSYFEFKIQSTGIWGIGVATQKVNLNQIPLGRDMHSLVMRNDGALYHNNEEKNRLPANSLPQEGDVVGITYDHVELNVYLNGKNMHCPASGIRGTVYPVVYVDDSAILDCQFSEFYHTPPPGFEKILFEQQIF [SPRYD7] | 0.0977 | -1.67 | 52.6 | 54.2 | -0.19 | 0.156
4 | MATTAAPAGGARNGAGPEWGGFEENIQGGGSAVIDMENMDDTSGSSFEDMGELHQRLREEEVDADAADAAAAEEEDGEFLGMKGFKGQLSRQVADQMWQAGKRQASRAFSLYANIDILRPYFDVEPAQVRSRLLESMIPIKMVNFPQKIAGELYGPLMLVFTLVAILLHGMKTSDTIIREGTLMGTAIGTCFGYWLGVSSFIYFLAYLCNAQITMLQMLALLGYGLFGHCIVLFITYNIHLHALFYLFWLLVGGLSTLRMVAVLVSRTVGPTQRLLLCGTLAALHMLFLLYLHFAYHKVVEGILDTLEGPNIPPIQRVPRDIPAMLPAARLPTTVLNATAKAVAVTLQSH [YIPF3] | -2.34 | -3.63 | 55.9 | 55.7 | -0.0133 | -0.107
5 | MATYLEFIQQNEERDGVRFSWNVWPSSRLEATRMVVPLACLLTPLKERPDLPPVQYEPVLCSRPTCKAVLNPLCQVDYRAKLWACNFCFQRNQFPPAYGGISEVNQPAELMPQFSTIEYVIQRGAQSPLIFLYVVDTCLEEDDLQALKESLQMSLSLLPPDALVGLITFGRMVQVHELSCEGISKSYVFRGTKDLTAKQIQDMLGLTKPAMPMQQARPAQPQEHPFASSRFLQPVHKIDMNLTDLLGELQRDPWPVTQGKRPLRSTGVALSIAVGLLEGTFPNTGARIMLFTGGPPTQGPGMVVGDELKIPIRSWHDIEKDNARFMKKATKHYEMLANRTAANGHCIDIYACALDQTGLLEMKCCANLTGGYMVMGDSFNTSLFKQTFQRIFTKDFNGDFRMAFGATLDVKTSRELKIAGAIGPCVSLNVKGPCVSENELGVGGTSQWKICGLDPTSTLGIYFEVVNQHNTPIPQGGRGAIQFVTHYQHSSTQRRIRVTTIARNWADVQSQLRHIEAAFDQEAAAVLMARLGVFRAESEEGPDVLRWLDRQLIRLCQKFGQYNKEDPTSFRLSDSFSLYPQFMFHLRRSPFLQVFNNSPDESSYYRHHFARQDLTQSLIMIQPILYSYSFHGPPEPVLLDSSSILADRILLMDTFFQIVIYLGETIAQWRKAGYQDMPEYENFKHLLQAPLDDAQEILQARFPMPRYINTEHGGSQARFLLSKVNPSQTHNNLYAWGQETGAPILTDDVSLQVFMDHLKKLAVSSAC [SEC23B] | 0.832 | 0.395 | 50.4 | 50.9 | -0.175 | 0.0443
6 | MAVAPRLFGGLCFRFRDQNPEVAVEGRLPISHSCVGCRRERTAMATVAANPAAAAAAVAAAAAVTEDREPQHEELPGLDSQWRQIENGESGRERPLRAGESWFLVEKHWYKQWEAYVQGGDQDSSTFPGCINNATLFQDEINWRLKEGLVEGEDYVLLPAAAWHYLVSWYGLEHGQPPIERKVIELPNIQKVEVYPVELLLVRHNDLGKSHTVQFSHTDSIGLVLRTARERFLVEPQEDTRLWAKNSEGSLDRLYDTHITVLDAALETGQLIIMETRKKDGTWPSAQLHVMNNNMSEEDEDFKGQPGICGLTNLGNTCFMNSALQCLSNVPQLTEYFLNNCYLEELNFRNPLGMKGEIAEAYADLVKQAWSGHHRSIVPHVFKNKVGHFASQFLGYQQHDSQELLSFLLDGLHEDLNRVKKKEYVELCDAAGRPDQEVAQEAWQNHKRRNDSVIVDTFHGLFKSTLVCPDCGNVSVTFDPFCYLSVPLPISHKRVLEVFFIPMDPRRKPEQHRLVVPKKGKISDLCVALSKHTGISPERMMVADVFSHRFYKLYQLEEPLSSILDRDDIFVYEVSGRIEAIEGSREDIVVPVYLRERTPARDYNNSYYGLMLFGHPLLVSVPRDRFTWEGLYNVLMYRLSRYVTKPNSDDEDDGDEKEDDEEDKDDVPGPSTGGSLRDPEPEQAGPSSGVTNRCPFLLDNCLGTSQWPPRRRRKQLFTLQTVNSNGTSDRTTSPEEVHAQPYIAIDWEPEMKKRYYDEVEAEGYVKHDCVGYVMKKAPVRLQECIELFTTVETLEKENPWYCPSCKQHQLATKKLDLWMLPEILIIHLKRFSYTKFSREKLDTLVEFPIRDLDFSEFVIQPQNESNPELYKYDLIAVSNHYGGMRDGHYTTFACNKDSGQWHYFDDNSVSPVNENQIESKAAYVLFYQRQDVARRLLSPAGSSGAPASPACSSPPSSEFMDVN [USP11] | 2.48 | 4.39 | 47.3 | 48.1 | -0.0102 | -0.0353
